Data taken from PMC11074293 (Nature Communications, 2024).
Each block holds one binder with its values, some of them ahead of it.

Tests used:
[1] = target: the molecule itself; test: cryo-EM structure; full-length CUL3-RBX1-KLHL22 co-expressed in SF9, purified, GraFix (glutaraldehyde gradient); C2 symmetry, 3.8 Å overall, 3.3 Å for the dimer assembly region
CUL3^Δ1–13-RBX1 [2] = target: T1, CUL3^Δ1–13-RBX1 (human, UniProt Q13618 14-768; P62877 1-108); test: ITC; ITC200; CUL3-RBX1 (120 μM) in the syringe titrated into KLHL22^1–178 (10 μM) in the cell, 25 °C, one-site model; repeated with KLHL22^1–178 (120 μM) into CUL3-RBX1 (12 μM); settings: both partners purified
T1 construct: Cullin-3 (CUL3), human, residues 1-13 deleted (partial deletion of the NA motif); RBX1, human, without a tag; source: purified; host stated only for wild-type CUL3-RBX1 (SF9); copies: 1 + 1
T1 sequence (Q13618 14-768, stated change not applied, chain 1 of 2): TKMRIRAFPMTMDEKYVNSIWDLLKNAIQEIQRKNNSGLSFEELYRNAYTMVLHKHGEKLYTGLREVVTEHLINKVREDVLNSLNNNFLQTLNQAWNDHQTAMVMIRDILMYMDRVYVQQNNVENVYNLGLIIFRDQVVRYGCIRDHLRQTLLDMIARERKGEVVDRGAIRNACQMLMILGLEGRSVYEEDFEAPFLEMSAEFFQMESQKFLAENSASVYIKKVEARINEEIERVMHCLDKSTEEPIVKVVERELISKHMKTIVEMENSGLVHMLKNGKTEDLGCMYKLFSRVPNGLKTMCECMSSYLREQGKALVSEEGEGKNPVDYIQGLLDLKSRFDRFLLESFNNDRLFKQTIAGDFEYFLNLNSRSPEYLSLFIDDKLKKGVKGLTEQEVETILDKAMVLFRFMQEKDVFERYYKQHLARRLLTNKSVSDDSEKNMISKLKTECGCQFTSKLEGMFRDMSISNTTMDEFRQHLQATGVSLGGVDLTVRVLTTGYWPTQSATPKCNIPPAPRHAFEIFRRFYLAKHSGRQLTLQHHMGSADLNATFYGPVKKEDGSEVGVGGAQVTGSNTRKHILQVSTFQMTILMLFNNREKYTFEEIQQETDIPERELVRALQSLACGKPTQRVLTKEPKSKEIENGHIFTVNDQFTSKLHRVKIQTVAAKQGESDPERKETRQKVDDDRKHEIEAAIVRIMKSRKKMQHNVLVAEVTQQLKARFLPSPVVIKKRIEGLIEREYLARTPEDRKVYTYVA
T1 sequence (P62877 whole entry, stated change not applied, chain 2 of 2, the tested form may be a part): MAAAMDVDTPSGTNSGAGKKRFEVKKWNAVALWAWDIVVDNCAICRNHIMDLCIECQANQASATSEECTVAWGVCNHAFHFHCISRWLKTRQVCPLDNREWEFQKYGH

CUL3^WT-RBX1 [3] = target: T2, CUL3^WT-RBX1 (human, UniProt Q13618 1-768; P62877 1-108); test: as above; settings: both partners purified
T2 construct: Cullin-3 (CUL3), human, full length; also called CUL3-RBX1; (CUL3-His6)-RBX1; source: SF9 insect cells, co-expressed from pFastbac-dual, purified (Ni-IDA, SEC); copies: 1 + 1
T2 sequence (Q13618 whole entry, chain 1 of 2): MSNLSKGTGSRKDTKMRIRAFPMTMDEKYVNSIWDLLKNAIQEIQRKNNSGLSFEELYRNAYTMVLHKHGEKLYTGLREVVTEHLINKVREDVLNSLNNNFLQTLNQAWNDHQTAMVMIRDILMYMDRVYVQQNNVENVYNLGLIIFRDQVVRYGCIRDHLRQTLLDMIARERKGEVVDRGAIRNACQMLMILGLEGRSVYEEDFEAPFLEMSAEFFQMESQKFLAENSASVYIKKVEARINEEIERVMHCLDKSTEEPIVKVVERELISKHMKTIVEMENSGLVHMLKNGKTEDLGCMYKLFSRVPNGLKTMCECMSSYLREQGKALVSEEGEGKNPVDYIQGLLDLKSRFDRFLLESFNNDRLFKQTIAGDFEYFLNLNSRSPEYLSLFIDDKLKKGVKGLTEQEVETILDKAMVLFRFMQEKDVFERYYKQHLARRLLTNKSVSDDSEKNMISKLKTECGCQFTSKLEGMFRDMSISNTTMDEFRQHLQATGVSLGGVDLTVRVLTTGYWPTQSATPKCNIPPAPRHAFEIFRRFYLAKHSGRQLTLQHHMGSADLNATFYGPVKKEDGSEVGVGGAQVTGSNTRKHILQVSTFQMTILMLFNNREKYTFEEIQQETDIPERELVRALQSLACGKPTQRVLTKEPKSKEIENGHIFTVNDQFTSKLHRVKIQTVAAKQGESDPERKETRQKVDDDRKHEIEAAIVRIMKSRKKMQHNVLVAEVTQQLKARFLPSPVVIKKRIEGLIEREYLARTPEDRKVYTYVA
T2 sequence (P62877 whole entry, chain 2 of 2): as the sequence (P62877 whole entry, stated change not applied, chain 2 of 2, the tested form may be a part) above

CUL3^Δ1–24-RBX1 [4] = target: T3, CUL3^Δ1–24-RBX1 (human, UniProt Q13618 25-768; P62877 1-108); test: as above; settings: both partners purified
T3 construct: Cullin-3 (CUL3), human, residues 1-24 (the whole NA motif) deleted; RBX1, human, without a tag; source: purified; host stated only for wild-type CUL3-RBX1 (SF9); copies: 1 + 1
T3 sequence (Q13618 25-768, stated change not applied, chain 1 of 2): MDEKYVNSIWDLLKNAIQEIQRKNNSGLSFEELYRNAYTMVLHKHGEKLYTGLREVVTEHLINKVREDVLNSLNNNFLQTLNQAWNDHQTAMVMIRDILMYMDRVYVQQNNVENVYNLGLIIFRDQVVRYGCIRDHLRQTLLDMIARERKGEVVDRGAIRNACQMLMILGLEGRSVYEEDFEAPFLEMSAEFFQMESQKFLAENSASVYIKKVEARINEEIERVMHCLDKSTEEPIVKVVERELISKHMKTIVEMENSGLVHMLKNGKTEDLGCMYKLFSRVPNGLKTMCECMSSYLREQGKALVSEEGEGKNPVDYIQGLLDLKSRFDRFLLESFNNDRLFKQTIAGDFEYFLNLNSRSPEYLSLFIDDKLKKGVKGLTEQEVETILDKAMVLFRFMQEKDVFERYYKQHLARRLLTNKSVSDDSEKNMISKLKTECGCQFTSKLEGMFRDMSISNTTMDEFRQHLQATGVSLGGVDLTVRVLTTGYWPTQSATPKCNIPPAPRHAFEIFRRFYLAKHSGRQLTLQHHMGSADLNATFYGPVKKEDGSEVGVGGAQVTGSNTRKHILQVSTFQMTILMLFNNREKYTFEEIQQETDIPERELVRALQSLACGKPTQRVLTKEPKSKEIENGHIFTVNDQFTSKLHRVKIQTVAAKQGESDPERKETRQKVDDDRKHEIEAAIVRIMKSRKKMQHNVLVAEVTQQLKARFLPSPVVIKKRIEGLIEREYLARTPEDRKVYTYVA
T3 sequence (P62877 whole entry, stated change not applied, chain 2 of 2, the tested form may be a part): as the sequence (P62877 whole entry, stated change not applied, chain 2 of 2, the tested form may be a part) above

[5] = target: the molecule itself; test: SEC-MALS; WTC-015S5 column, low salt buffer; complexes at 2 mg/ml, KLHL22^1–178 and KLHL12^1–161 alone at 3 mg/ml
CUL3^Δ1–13-RBX1 [6] = target: T1, CUL3^Δ1–13-RBX1; test: SEC; analytical SEC, Superdex 200 Increase 10/300 GL, 20 mM Tris-HCl pH 8.0, 150 mM NaCl, 1% glycerol, 1 mM TCEP; purified proteins mixed 1:1 (also 2:1 and 4:1 CUL3-RBX1 to BTB protein), 10 min on ice; settings: both partners purified
CUL3^WT-RBX1 [7] = target: T2, CUL3^WT-RBX1; test: as above; settings: both partners purified
CUL3^Δ1–24-RBX1 [8] = target: T3, CUL3^Δ1–24-RBX1; test: as above; settings: both partners purified

B1: KLHL22 (full length, N-terminal His6) (natural protein, human, UniProt Q53GT1 1-634, looked up)
chain: MAEEQEFTQLCKLPAQPSHPHCVNNTYRSAQHSQALLRGLLALRDSGILFDVVLVVEGRHIEAHRILLAASCDYFRGMFAGGLKEMEQEEVLIHGVSYNAMCQILHFIYTSELELSLSNVQETLVAACQLQIPEIIHFCCDFLMSWVDEENILDVYRLAELFDLSRLTEQLDTYILKNFVAFSRTDKYRQLPLEKVYSLLSSNRLEVSCETEVYEGALLYHYSLEQVQADQISLHEPPKLLETVRFPLMEAEVLQRLHDKLDPSPLRDTVASALMYHRNESLQPSLQSPQTELRSDFQCVVGFGGIHSTPSTVLSDQAKYLNPLLGEWKHFTASLAPRMSNQGIAVLNNFVYLIGGDNNVQGFRAESRCWRYDPRHNRWFQIQSLQQEHADLSVCVVGRYIYAVAGRDYHNDLNAVERYDPATNSWAYVAPLKREVYAHAGATLEGKMYITCGRRGEDYLKETHCYDPGSNTWHTLADGPVRRAWHGMATLLNKLYVIGGSNNDAGYRRDVHQVACYSCTSGQWSSVCPLPAGHGEPGIAVLDNRIYVLGGRSHNRGSRTGYVHIYDVEKDCWEEGPQLDNSISGLAACVLTLPRSLLLEPPRGTPDRSQADPDFASEVMSVSDWEEFDNSSED
notes: Kelch-like protein 22 (KLHL22), human, full length; Dimer in the cryo-EM structure of CRL3^KLHL22; also called His6-KLHL22
binding result [1]: binds

Kd (CUL3^Δ1–13-RBX1 [2]): ~87 nM
Kd (CUL3^WT-RBX1 [3]): ~27 nM
Kd (CUL3^Δ1–24-RBX1 [4]): ~383 nM
B2: KLHL22^1–178 (domain or fragment, human, UniProt Q53GT1 1-178, looked up)
chain: MAEEQEFTQLCKLPAQPSHPHCVNNTYRSAQHSQALLRGLLALRDSGILFDVVLVVEGRHIEAHRILLAASCDYFRGMFAGGLKEMEQEEVLIHGVSYNAMCQILHFIYTSELELSLSNVQETLVAACQLQIPEIIHFCCDFLMSWVDEENILDVYRLAELFDLSRLTEQLDTYILKN
notes: TEV site ENLYFQG: a residue of the site may be left at the N-terminus after cleavage; source: E. coli BL21(DE3), purified (Ni-IDA, SEC), His-MBP tag removed with TEV protease; not shown: His6, N-terminal, cleaved; MBP, N-terminal, cleaved
stoichiometry N [5]: 2

binding result (CUL3^Δ1–13-RBX1 [6]): binds
binding result (CUL3^WT-RBX1 [7]): binds
binding result (CUL3^Δ1–24-RBX1 [8]): binds
B3: KLHL12^1–161 (domain or fragment, human, UniProt Q53G59 1-161, looked up)
chain: MGGIMAPKDIMTNTHAKSILNSMNSLRKSNTLCDVTLRVEQKDFPAHRIVLAACSDYFCAMFTSELSEKGKPYVDIQGLTASTMEILLDFVYTETVHVTVENVQELLPAACLLQLKGVKQACCEFLESQLDPSNCLGIRDFAETHNCVDLMQAAEVFSQKH
notes: as for B2
stoichiometry N [5]: 2
